Laboratory results reported in the supplement of paper PMC7125110.
± gives the standard error. For part of these data: Variants at the floor of the assay were thinned out.

B1: glmS ribozyme (parent)
chain: AUAAAAGCGCCAGAACUACAGAAAUGUAGUUGACGAGGAGGAGGUUUAUCGAAUUUUCGGCGGAUGCCUCCAAA

Tests used:
Settings in all cases: with glucosamine-6-phosphate
glucosamine-6-phosphate [1] = variants of: B1; test: kcat; higher = faster cleavage; RNA array
Method in brief: (§1)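 Over ~14 h at 37 °C, tiles were imaged as glucosamine-6-phosphate (40 μM to 10 mM) in HEPES/KCl/Mg(OAc)2 buffer flowed across sequenced MiSeq chips. The chips carried barcoded ribozyme variants transcribed in situ by E. coli RNA polymerase and tracked with a hybridised Cy3 probe. After normalisation to baseline and to non-cleaving reference variants, one- or two-exponential decay fits of per-tile medians gave kobs. kcat and KM followed from weighted Michaelis–Menten fits across concentrations.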

glucosamine-6-phosphate [2] = variants of: B1; test: KM; higher = weaker cofactor use; RNA array
Method in brief: as §1

glucosamine-6-phosphate [3] = variants of: B1; test: self-cleavage kobs at 160 uM GlcN6P; higher = faster cleavage; RNA array
Method in brief: as §1

glucosamine-6-phosphate [4] = variants of: B1; test: self-cleavage kobs at 640 uM GlcN6P; higher = faster cleavage; RNA array
Method in brief: as §1

glucosamine-6-phosphate [5] = variants of: B1; test: self-cleavage kobs at 2500 uM GlcN6P; higher = faster cleavage; RNA array
Method in brief: as §1

glucosamine-6-phosphate [6] = variants of: B1; test: self-cleavage kobs at 10000 uM GlcN6P; higher = faster cleavage; RNA array
Method in brief: as §1

glucosamine-6-phosphate [7] = variants of: B1; test: self-cleavage kobs at 40 uM GlcN6P; higher = faster cleavage; RNA array
Method in brief: as §1

Variant | kcat (glucosamine-6-phosphate [1]) [s⁻¹] | KM (glucosamine-6-phosphate [2]) [µM] | self-cleavage kobs at 160 uM GlcN6P (glucosamine-6-phosphate [3]) [s⁻¹] | self-cleavage kobs at 640 uM GlcN6P (glucosamine-6-phosphate [4]) [s⁻¹] | self-cleavage kobs at 2500 uM GlcN6P (glucosamine-6-phosphate [5]) [s⁻¹] | self-cleavage kobs at 10000 uM GlcN6P (glucosamine-6-phosphate [6]) [s⁻¹] | self-cleavage kobs at 40 uM GlcN6P (glucosamine-6-phosphate [7]) [s⁻¹]
U47A U56C | 0.00368 ± 0.00095 | 3940 ± 1500 | 0.000111 ± 2.1e-05 | 0.000703 ± 8.8e-05 | 0.00144 ± 0.00021 | 0.00257 ± 0.00031 | –
U46C U55A | 0.00288 ± 0.00026 | 1110 ± 150 | – | 0.0011 ± 0.0002 | 0.00248 ± 0.00076 | 0.00247 ± 0.00041 | 9.7e-05 ± 1.5e-05
A12G G32U | 0.00313 ± 0.00012 | – | 4.1e-05 ± 8.1e-06 | 0.000164 ± 1.8e-05 | 0.00055 ± 5.4e-05 | 0.00144 ± 0.00014 | –
A12G A15G C70A | 0.000107 ± 1.9e-05 | 2120 ± 890 | – | – | 5.85e-05 ± 1.1e-05 | 8.6e-05 ± 3.1e-05 | –
A14C A15G G40U | 0.000605 ± 0.0002 | 5380 ± 2700 | – | 8.18e-05 ± 1.4e-05 | 0.000171 ± 2.4e-05 | 0.000428 ± 7.3e-05 | –
A14C U45G | 0.00127 ± 0.00013 | 3410 ± 600 | 6.63e-05 ± 1.5e-05 | 0.000181 ± 2.6e-05 | 0.000606 ± 9.4e-05 | 0.000933 ± 9.1e-05 | –
U31C C67U | 0.00122 ± 0.00016 | 1290 ± 260 | 0.000125 ± 2e-05 | 0.000375 ± 4.8e-05 | 0.000785 ± 0.00011 | 0.00115 ± 0.00016 | 4.68e-05 ± 7.4e-06
A48C U55C | 0.000419 ± 0.00015 | – | – | 6.73e-05 ± 1.2e-05 | 0.000327 ± 4.9e-05 | 0.00029 ± 4.9e-05 | –
U49A C70G | 1.43e-05 ± 3.7e-06 | – | – | – | – | – | –
A6G C67U | 0.000111 ± 4.4e-05 | – | – | – | – | 8.08e-05 ± 7.3e-06 | –
U47C C67U | 0.000295 ± 6.9e-05 | – | 6.7e-05 ± 2.4e-05 | 0.000131 ± 3.2e-05 | 0.000177 ± 3.5e-05 | 0.000358 ± 6e-05 | –
A12C G59C | 1.09e-05 ± 2.5e-06 | – | – | – | – | – | –
G13U U55G | 0.00153 ± 0.00021 | 3830 ± 780 | 6.37e-05 ± 8.5e-06 | 0.000195 ± 2.5e-05 | 0.000643 ± 7.1e-05 | 0.00109 ± 0.00011 | 2.48e-05 ± 7.6e-06
A12U C68G | 0.000191 ± 2.7e-05 | 624 ± 230 | 5.38e-05 ± 6.4e-06 | 8.22e-05 ± 7.3e-06 | 0.00016 ± 1.2e-05 | 0.000186 ± 1.6e-05 | –
C10U U47A | 2.05e-05 ± 1.2e-06 | 300 ± 150 | < 1e-05 | – | – | – | < 1e-05
U54G C68G | 0.0001 ± 1e-05 | 89.1 ± 43 | 6.82e-05 ± 8.7e-06 | 0.000111 ± 1.1e-05 | 8.41e-05 ± 9.1e-06 | 9.69e-05 ± 8.7e-06 | 2.37e-05 ± 7.3e-06
U30G U69G | 3.4e-05 ± 1.2e-05 | – | 5.83e-05 ± 1.7e-05 | 6.34e-05 ± 1.3e-05 | 3.55e-05 ± 8.8e-06 | – | –
G32U C67A | 0.000412 ± 4.2e-05 | 4200 ± 780 | – | 5.83e-05 ± 6.7e-06 | 0.00014 ± 1.6e-05 | 0.000296 ± 2.2e-05 | –
G41A U46A | 0.000569 ± 0.0001 | 1480 ± 630 | 4.5e-05 ± 1.2e-05 | 0.000168 ± 4.6e-05 | 0.000531 ± 7.8e-05 | 0.000462 ± 4.9e-05 | 3.02e-05 ± 1.4e-05
A14C G32A | 0.00779 ± 0.0028 | – | 0.000388 ± 0.00011 | 0.0014 ± 0.00034 | 0.00183 ± 0.00065 | 0.00702 ± 0.00097 | 0.000121 ± 2.5e-05
G9U U31C | < 1e-05 | – | – | < 1e-05 | – | < 1e-05 | –
G44U U65G | 0.000347 ± 2.4e-05 | – | – | – | 5.71e-05 ± 1.8e-05 | 0.000152 ± 2.6e-05 | –
A12C A53C | 0.00399 ± 0.0011 | 2090 ± 920 | 0.000285 ± 8.1e-05 | 0.000662 ± 0.00012 | 0.00223 ± 0.00038 | 0.00352 ± 0.00041 | 0.000109 ± 1.4e-05
U31A C67G | 0.000586 ± 0.00013 | 3660 ± 1500 | – | 0.0001 ± 2.6e-05 | 0.000201 ± 4.4e-05 | 0.000456 ± 7.3e-05 | –
G40U A53U | 0.00278 ± 0.00064 | 1300 ± 390 | 0.000254 ± 3.2e-05 | 0.000821 ± 9.1e-05 | 0.00203 ± 0.00093 | 0.00266 ± 0.00031 | 0.000101 ± 8.3e-06
A14U U55C | 0.00666 ± 0.0014 | 1760 ± 500 | 0.000488 ± 8.3e-05 | 0.00161 ± 0.00025 | 0.00352 ± 0.00053 | 0.0066 ± 0.001 | 0.000181 ± 2.3e-05
A14G U65C | 0.00147 ± 0.00035 | 1120 ± 420 | 0.000176 ± 3.5e-05 | 0.000445 ± 9.2e-05 | 0.00142 ± 0.00028 | 0.00124 ± 0.00025 | 7.25e-05 ± 1.9e-05
G43A | 9.3e-05 ± 6.9e-06 | 1560 ± 420 | – | 2.21e-05 ± 1.7e-06 | 6.37e-05 ± 1.8e-06 | 7.88e-05 ± 1.4e-06 | –
G40A G41A U55G | 8.3e-05 ± 7.3e-06 | 578 ± 220 | – | 4.12e-05 ± 1.4e-05 | 7.85e-05 ± 2.1e-05 | 7.52e-05 ± 1.5e-05 | –
